This experiment deals with G3BP1 NTF2-like domain (human) (UniProt Q13283). Nature of the experiment: fluorescence polarisation.
Sequence of G3BP1 NTF2-like domain (human) (Q13283 1-139): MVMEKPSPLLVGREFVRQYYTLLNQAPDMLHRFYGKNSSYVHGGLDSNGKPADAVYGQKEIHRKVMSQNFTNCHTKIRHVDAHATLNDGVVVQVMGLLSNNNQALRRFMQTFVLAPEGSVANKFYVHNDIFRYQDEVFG

For “SARS-CoV-2 N wt peptide 12-26 (peptide; other documents disagree on this pair)”, the half-maximal inhibitory concentration (IC50) amounted to 8.7 µM.

The record behind these values is PMC12102759.
